Reference: US20230218637A1, “COMPOSITIONS AND METHODS FOR DIAGNOSING, PREVENTING, AND TREATING AMYOTROPHIC LATERAL SCLEROSIS IN PATIENTS WITH HYPOFUNCTIONAL ANTI-TRYPSIN ACTIVITY” (Motor Life Sciences, LLC, priority 2020, published 2023)

What was measured:
[1] = test system: mutant SOD mice (SOD1G93A); test: Ursolic acid treatment of ALS mouse model (grip test, rotarod); format: in vivo; conditions: ursolic acid 200 mg/kg daily over eight weeks
Description: In ALS mouse models, like mutant SOD mice (SOD1G93A)), ALS is diagnosed based on hanging wire grip test (where the latency of falling is measured in seconds), grip strength analysis, rotarod time trial test, where a decrease in time balanced on the rod correlates to disease positive mice. Weight is measured to determine hypotrophy of muscle mass over time. Low levels of serum serpinA1 proteins levels, serum protease inhibitor function, serum trypsin protein levels, and serum functional trypsin level correlates with ALS. Once the mice have been diagnosed with ALS, the mice are given daily treatments of ursolic acid (200 mg/kg) over the course of eight weeks. Levels of serum serpinA1 proteins, serum protease inhibitor function, serum trypsin protein, and serum functional trypsin are assessed over time monitoring for an increases. Grip test and rotarod times are assessed over time as a correlation for delay in disease progression.

alpha-1 anti-trypsin = conditions: cited from earlier work; for augmenting blood and lung alpha-1 anti-trypsin levels compared with Prolastin / safety compared with Prolastin: basis of approval
[2] = target: T1, alpha1-protease inhibitor (Homo sapiens, UniProt P01009); conditions: cited from earlier work
T1 construct: a human protein has been isolated from pooled human serum samples and lyophilized; tissue Baxter / Takeda (Aralast NP); host or cells: pooled human serum / plasma
T1 sequence (P01009 25-418): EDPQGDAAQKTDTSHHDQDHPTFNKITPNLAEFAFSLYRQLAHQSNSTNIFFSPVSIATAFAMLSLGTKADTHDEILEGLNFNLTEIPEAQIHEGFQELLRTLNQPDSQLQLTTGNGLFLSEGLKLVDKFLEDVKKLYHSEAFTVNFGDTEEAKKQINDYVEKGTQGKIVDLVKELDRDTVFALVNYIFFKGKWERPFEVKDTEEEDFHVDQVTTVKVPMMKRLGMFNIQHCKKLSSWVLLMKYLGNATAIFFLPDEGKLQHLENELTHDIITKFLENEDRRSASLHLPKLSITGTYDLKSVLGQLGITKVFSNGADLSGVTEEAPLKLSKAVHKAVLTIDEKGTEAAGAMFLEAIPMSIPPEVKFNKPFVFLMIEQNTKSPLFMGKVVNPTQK

In the case of `C[C@H]1[C@H](C)CC[C@]2(C(=O)O)CC[C@]3(C)C(=CC[C@@H]4[C@@]5(C)CC[C@H](O)C(C)(C)[C@@H]5CC[C@]43C)[C@H]12` [ursolic acid], the “performance (grip test, rotarod) versus non-treatment group” value [1] is reported as “outperform the non-treatment group”.

For “Aralast NP: sterile, lyophilized preparation of human alpha-1 antitrypsin protein derived from large pools of human plasma”, the “augmenting blood and lung alpha-1 anti-trypsin levels compared with Prolastin” value (alpha-1 anti-trypsin) is listed as “comparable to Prolastin”, the “safety compared with Prolastin” value (alpha-1 anti-trypsin) is listed as “comparable to Prolastin” and the specific activity [2] is listed as 0.55 mg active alpha1-protease inhibitor/mg of total protein.

For “Glassia: FDA approved alpha-1 antitrypsin deficiency drug from Kamada Ltd.”, the “augmenting blood and lung alpha-1 anti-trypsin levels compared with Prolastin” value (alpha-1 anti-trypsin) is listed as “comparable to Prolastin” and the “safety compared with Prolastin” value (alpha-1 anti-trypsin) is listed as “comparable to Prolastin”.

In the case of “Prolastin: alpha-1 antitrypsin augmentation therapy product from Grifols, marketed since 1988”, the safety record (alpha-1 anti-trypsin; marketed since 1988) is listed as “excellent safety record”.

For “Zemaira: FDA approved alpha-1 antitrypsin deficiency drug from CSL Behring”, the “augmenting blood and lung alpha-1 anti-trypsin levels compared with Prolastin” value (alpha-1 anti-trypsin) is given as “comparable to Prolastin” and the “safety compared with Prolastin” value (alpha-1 anti-trypsin) is given as “comparable to Prolastin”.
